Assays:
[1] = target: Crn1p (coronin1p), full-length recombinant (amino acids 1–651) (S. cerevisiae) (UniProt Q06440); assay: co-sedimentation
[2] = target: taxol-stabilized bovine brain microtubules (tubulin) (bovine) (UniProt Q6B856); assay: co-sedimentation

| Molecule | Kd [1] [µM] | Kd [2] [µM] | percent of Crn1p bound at 2 μM microtubules [2] [%] | percent of Crn1p bound at 10 μM microtubules [2] [%] |
| --- | --- | --- | --- | --- |
| taxol-stabilized bovine brain microtubules (tubulin) (from UniProt Q6B856 1-445) (complex) | 2 |  |  |  |
| Crn1p (coronin1p), full-length recombinant (amino acids 1–651) (natural protein) MSGKFVRASKYRHVFGQAAKKELQYEKLKVTNNAWDSNLLKTNGKFIAVNWNASGGGAFAVIPIEEVGKAPDQVPLFRGHTAQVLDTDFDPFNDHRIASGSDDSKIGIWDIPENYKFHDHVDEDGEPIDIKPVKFLTGHARKVGHVLYHPVAENVLASSSGDYTVKLWNVETGKDMITLKHPDMVTSMSFSYDGNYLATVARDKKLRVWNIREEKIVSEGPAHTGAKNQRVVWLGNSDRLATTGFSKLSDRQIGIWDAFNIEKGDLGGFYTVDQSSGILMPFYDEGNKILYLVGKGDGNIRYYEFQNDELFELSEFQSTEAQRGFAVAPKRMVNVKENEVLKGFKTVVDQRIEPVSFFVPRRSEEFQEDIYPDAPSNKPALTAEEWFSGKSVEGPILVSMRSIYDGSAPSFHEAKRPQQPTTQETALEEKKEQPKVEKPISESEKEVKQEAPKSPSPLKSASSSSTINHVLKEDNSINKLLKKSSDIDQVNNAEDPSRDTSGWEEADDEPAPIKIETPVTPTETKKDRTPKVEPSKELKPEPVSIATDRKQEQSLPQEEKSSEKTKSPEQEKSATPPSSITAAKTAITASSKEEPSAARTSPKSLGLKKSVEKLSTLVLQLEDVVDKLTKANLDKDERLLKLEQKIGELSK |  | 15 to 20 | 20 | 40 |
